{
  "source": "patent US12624112",
  "about": "(MABWELL SHANGHAI BIOSCIENCE, dated 2026)",
  "key": {"Human ST2-fc (human) [1]": {"biological_target": "Human ST2-fc (human) (UniProt Q01638)", "assay": "competition ELISA, coated ST2-fc, competitor IL33-his"}, "Human ST2-fc (human) [2]": {"biological_target": "Human ST2-fc (human) (UniProt Q01638)", "assay": "competition ELISA: human ST2-fc coated, antibody titrated in a mixture with human IL33-his (blocked ligand), bound IL33-his detected with an anti-His secondary antibody, OD450-OD650 [continued), 9-5]"}, "Human ST2-fc (human) [3]": {"biological_target": "Human ST2-fc (human) (UniProt Q01638)", "assay": "competition ELISA: human ST2-fc coated, antibody titrated in a mixture with human IL33-his (blocked ligand), bound IL33-his detected with an anti-His secondary antibody, OD450-OD650 [continued), 9-7]"}, "Human ST2-fc (human) [4]": {"biological_target": "Human ST2-fc (human) (UniProt Q01638)", "assay": "competition ELISA: human ST2-fc coated, antibody titrated in a mixture with human IL33-his (blocked ligand), bound IL33-his detected with an anti-His secondary antibody, OD450-OD650 [continued), 9-4]"}, "[5]": {"biological_target": "T1, ST2 on the effector cells (KU812, KU812/NF-κB-1#, HUVEC, HMC-1) (human, UniProt Q01638 19-556)", "T1 sequence (looked up)": "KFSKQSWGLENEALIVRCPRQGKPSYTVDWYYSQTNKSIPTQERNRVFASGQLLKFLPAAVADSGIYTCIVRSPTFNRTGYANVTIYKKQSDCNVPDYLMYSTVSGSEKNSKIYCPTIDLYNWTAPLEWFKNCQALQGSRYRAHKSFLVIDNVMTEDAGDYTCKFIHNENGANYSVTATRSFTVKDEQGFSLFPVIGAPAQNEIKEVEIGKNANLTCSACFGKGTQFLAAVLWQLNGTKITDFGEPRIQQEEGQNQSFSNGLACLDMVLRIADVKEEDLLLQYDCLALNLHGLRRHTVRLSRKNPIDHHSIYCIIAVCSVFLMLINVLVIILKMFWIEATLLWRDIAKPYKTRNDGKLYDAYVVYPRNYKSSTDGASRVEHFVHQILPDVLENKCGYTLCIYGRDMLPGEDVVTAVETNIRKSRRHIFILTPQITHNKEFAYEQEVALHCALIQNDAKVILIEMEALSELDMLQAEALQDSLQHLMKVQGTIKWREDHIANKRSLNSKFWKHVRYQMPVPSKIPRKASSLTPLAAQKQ", "assay": "cell-based or functional assay"}, "Human ST2-his [6]": {"biological_target": "T2, Human ST2-his (human, UniProt Q01638-2 19-328, limits assumed)", "T2 construct": "Expressed in CHO-K1; The printed range starts at Met1; also called human ST2 fused with a 6-histidine tag at the C-terminus", "T2 sequence": "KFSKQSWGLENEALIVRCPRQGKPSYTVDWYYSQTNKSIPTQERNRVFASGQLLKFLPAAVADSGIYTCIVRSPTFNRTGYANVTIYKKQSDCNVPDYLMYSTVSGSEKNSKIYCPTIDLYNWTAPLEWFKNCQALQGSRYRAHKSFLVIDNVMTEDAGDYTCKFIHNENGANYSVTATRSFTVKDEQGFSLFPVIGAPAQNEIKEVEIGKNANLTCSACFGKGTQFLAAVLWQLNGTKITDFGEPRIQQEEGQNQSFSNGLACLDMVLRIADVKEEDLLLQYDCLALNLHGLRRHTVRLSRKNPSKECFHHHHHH", "assay": "SPR Biacore X100, antibody captured on protein A chip, human ST2-his injected, pH 7.4", "in_short": "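Antibody (2 µg/mL) captured 60 s on protein A; human ST2-his injected at six 2-fold dilutions from 20 nM, association 180 s, dissociation 700 s. Kinetics fitted to 1:1 binding model; glycine pH 2.0 regeneration.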"}, "Human ST2-his [7]": {"biological_target": "T2, Human ST2-his", "assay": "SPR Biacore X100, antibody captured on protein A chip, human ST2-his injected, dissociation at pH 5.5", "description": "(§1) The experiment on the interaction between the anti-human ST2 antibodies and human ST2-his was performed using Biacore X100.\n(§2) Each anti-human ST2 antibody was diluted to 2 µg/mL and captured on the surface of a protein A chip for a capture time of 60 s. Following the antibody capture, a solution of human ST2-his (2-fold gradient dilution from a starting concentration of 20 nM, to obtain 6 concentrations in total) was injected. Association was monitored for 180 s and dissociation was monitored for 700 s, and the sensor surface was regenerated by injecting a solution of glycine at pH 2.0. Kinetic data were analyzed using a simple 1:1 binding model."}, "Human ST2-his [8]": {"biological_target": "T2, Human ST2-his", "assay": "SPR Biacore X100, ratio of kd at pH 5.5 to kd at pH 7.4", "description": "as §1, §2"}, "[9]": {"biological_target": "T1, ST2 on the effector cells (KU812, …)", "assay": "cell-based or functional assay", "remark": "listed apart in the source"}, "Human ST2-his [10]": {"biological_target": "T2, Human ST2-his", "assay": "SPR Biacore X100, antibody captured on protein A chip, human ST2-his injected, pH 7.4; pH 7.4", "description": "as §1, §2"}, "[11]": {"biological_target": "T1, ST2 on the effector cells (KU812, …)", "assay": "cell-based or functional assay", "remark": "listed apart in the source"}, "[12]": {"biological_target": "T1, ST2 on the effector cells (KU812, …)", "assay": "cell-based or functional assay", "remark": "listed apart in the source"}, "[13]": {"biological_target": "T1, ST2 on the effector cells (KU812, …)", "assay": "cell-based or functional assay", "remark": "listed apart in the source"}, "[14]": {"biological_target": "T1, ST2 on the effector cells (KU812, …)", "assay": "cell-based or functional assay", "remark": "listed apart in the source"}},
  "data": [
    {"molecule": "Control antibody CNTO7160", "values": [
      {"measurement": "Maximum inhibition rate", "setting": "Human ST2-fc (human) [1]", "result": 92.5, "unit": "%"},
      {"measurement": "IC50 (read off the curve)", "setting": "Human ST2-fc (human) [2]", "result": 1, "unit": "µg/mL"},
      {"measurement": "IC50 (read off the curve)", "setting": "Human ST2-fc (human) [3]", "result": 0.9, "unit": "µg/mL"}
    ]},
    {"molecule": "5888-153-H2L0 (antibody, human IgG4 S228P, kappa, V domains shown) VH: QVQLVQSGAEVKKPGASVKVSCKASGYTFTDYELHWVRQAPGQGLEWMGTIDPETGDTVYNQKFKARVTMTADKSTSTAYMELSSLRSEDTAVYYCTRAFYNDYDEGFAYWGQGTLVTVSS VL: EIVLTQSPATLSLSPGERATLSCSVSSSVSYMHWYQQKPGQAPRLLIYDTSKLASGIPARFSGSGSGTDFTLTISSLEPEDFAVYYCQQWNSSPLTFGGGTKVEIKR", "values": [
      {"measurement": "IC50 (read off the curve)", "setting": "Human ST2-fc (human) [4]", "result": 3, "unit": "µg/mL"}
    ]},
    {"molecule": "5888-153-H2L1 (antibody, human IgG4 S228P, kappa, V domains shown) VH: QVQLVQSGAEVKKPGASVKVSCKASGYTFTDYELHWVRQAPGQGLEWMGTIDPETGDTVYNQKFKARVTMTADKSTSTAYMELSSLRSEDTAVYYCTRAFYNDYDEGFAYWGQGTLVTVSS VL: EIVMTQSPATLSLSPGERATLSCSVSSSVSYMHWYQQKPGQAPRRLIYDTSKLASGIPARFSGSGSGTDYTLTISSLEPEDAAVYYCQQWNSSPLTFGGGTKVEIKR", "values": [
      {"measurement": "IC50 (read off the curve)", "setting": "Human ST2-fc (human) [4]", "result": 2, "unit": "µg/mL"}
    ]},
    {"molecule": "5888-379-H2L2 (antibody, human IgG4 S228P, kappa, V domains shown, Humanized antibody) VH: QVQLVQSGAEVKKPGASVKVSCKASGYTFINYGMNWVRQAPGQRLEWMGWINTYIGEPTYGDNFKGRVTITRDTSASTAYMELSSLRSEDTAVYYCAREGDAFAYWGQGTLVTVSS VL: DIVMTQSPDSLAVSLGERATINCKSSQSLLYSGNQNNYLAWYQQKPGQPPKLLIYGASTRESGVPDRFSGSGSGTDFTLTISSLQAEDVAVYYCQNDHSYPYTFGGGTKVEIKR", "values": [
      {"measurement": "IC50", "setting": "Human ST2-fc (human) [1]", "result": 0.402, "unit": "µg/mL"},
      {"measurement": "Maximum inhibition rate", "setting": "Human ST2-fc (human) [1]", "result": 86, "unit": "%"},
      {"measurement": "Relative activity compared with CNTO7160", "setting": "Human ST2-fc (human) [1]", "result": 219, "unit": "%"},
      {"measurement": "IC50, inhibition of KU812-IL5 production promoted by IL-33 (human IL33-his)", "setting": "[5]", "result": 0.0948, "unit": "µg/mL"},
      {"measurement": "Maximum inhibition rate, KU812-IL5 production by IL-33", "setting": "[5]", "result": 97.9, "unit": "%"},
      {"measurement": "Relative activity compared with CNTO7160, KU812-IL5 production by IL-33", "setting": "[5]", "result": 107, "unit": "%"},
      {"measurement": "Kd", "setting": "Human ST2-his [6]", "result": 0.515, "unit": "nM"},
      {"measurement": "koff", "setting": "Human ST2-his [6]", "result": 0.000702, "unit": "s⁻¹"},
      {"measurement": "kon", "setting": "Human ST2-his [6]", "result": "1.36e+06", "unit": "M⁻¹ s⁻¹"},
      {"measurement": "Kd", "setting": "Human ST2-his [7]", "result": 2.67, "unit": "nM"},
      {"measurement": "koff", "setting": "Human ST2-his [7]", "result": 0.0269, "unit": "s⁻¹"},
      {"measurement": "kon", "setting": "Human ST2-his [7]", "result": "1.01e+07", "unit": "M⁻¹ s⁻¹"},
      {"measurement": "kd ratio of pH 5.5/pH 7.4", "setting": "Human ST2-his [8]", "result": 38.4}
    ]},
    {"molecule": "Control antibody CNTO7160 (antibody, human IgG4 S228P, kappa, V domains shown, Known anti-ST2 control antibody) VH: EVQLLESGGGLVQPGGSLRLSCAASGFTFSIYDMIWVRQAPGKGLEWVSSIRGEGGGTYYADSVKGRFTISRDNSKNTLYLQMNSLRAEDTAVYYCARDPWSTEGSFFVLDYWGQGTLVTVSS VL: EIVLTQSPATLSLSPGERATLSCRASQSVDDDLAWYQQKPGQAPRLLIYDASNRATGIPARFSGSGSGTDFTLTISSLEPEDFAVYYCQQYITAPLTFGQGTKVEIKR", "values": [
      {"measurement": "IC50, inhibition of HUVEC-IL6 production promoted by IL33", "setting": "[9]", "result": 2.73, "unit": "µg/mL"},
      {"measurement": "Maximum inhibition rate, HUVEC-IL6 production by IL33", "setting": "[9]", "result": 66.6, "unit": "%"},
      {"measurement": "Relative activity, HUVEC-IL6 production by IL33", "setting": "[9]", "result": 100, "unit": "%"},
      {"measurement": "Maximum inhibition rate, KU812-IL5 production by IL-33", "setting": "[5]", "result": 97.5, "unit": "%"},
      {"measurement": "Kd", "setting": "Human ST2-his [10]", "result": 0.229, "unit": "nM"},
      {"measurement": "koff", "setting": "Human ST2-his [6]", "result": 0.000175, "unit": "s⁻¹"},
      {"measurement": "kon", "setting": "Human ST2-his [6]", "result": 763000, "unit": "M⁻¹ s⁻¹"},
      {"measurement": "Kd", "setting": "Human ST2-his [7]", "result": 0.395, "unit": "nM"},
      {"measurement": "koff", "setting": "Human ST2-his [7]", "result": 0.000267, "unit": "s⁻¹"},
      {"measurement": "kon", "setting": "Human ST2-his [7]", "result": 676000, "unit": "M⁻¹ s⁻¹"},
      {"measurement": "IC50, inhibition of KU812-IL5 production promoted by oxidized IL33", "setting": "[11]", "result": 0.0221, "unit": "µg/mL"},
      {"measurement": "Maximum inhibition rate, KU812-IL5 production by oxidized IL33", "setting": "[11]", "result": 98.9, "unit": "%"},
      {"measurement": "Relative activity, KU812-IL5 production by oxidized IL33", "setting": "[11]", "result": 100, "unit": "%"},
      {"measurement": "IC50, inhibition of KU812-IL5 production promoted by reduced IL33", "setting": "[12]", "result": 1.47, "unit": "µg/mL"},
      {"measurement": "Maximum inhibition rate, KU812-IL5 production by reduced IL33", "setting": "[12]", "result": 97.3, "unit": "%"},
      {"measurement": "Relative activity, KU812-IL5 production by reduced IL33", "setting": "[12]", "result": 100, "unit": "%"},
      {"measurement": "IC50, inhibition of activation of KU812-NF-κB reporter gene by IL33", "setting": "[13]", "result": 0.2, "unit": "µg/mL"},
      {"measurement": "Maximum inhibition rate, KU812-NF-κB reporter gene", "setting": "[13]", "result": 88.2, "unit": "%"},
      {"measurement": "kd ratio of pH 5.5/pH 7.4", "setting": "Human ST2-his [8]", "result": 1.53},
      {"measurement": "IC50, inhibition of HMC-1 IL8 production promoted by IL33", "setting": "[14]", "result": 0.101, "unit": "µg/mL"},
      {"measurement": "Maximum inhibition rate, HMC-1 IL8 production by IL33", "setting": "[14]", "result": 82.3, "unit": "%"}
    ]}
  ]
}
